From PMC3433786 (The EMBO Journal, 2012)
Numbering of substitutions follows the chain as printed. Names and notes keep the numbering of the source.

Assays:
[1] = biological target: the molecule itself; test: AUC
[2] = biological target: the molecule itself; test: SEC-MALS
[3] = biological target: the molecule itself; test: crystal structure

B1: mouse stomatin domain (amino acids 86–213), stomatin^86–213 (domain or fragment, UniProt P54116 86-213, looked up)
chain: PSTDSLIKVDMRTISFDIPPQEVLTKDSVTISVDGVVYYRVQNATLAVANITNADSATRLLAQTTLRNALGTKNLSQILSDREEIAHHMQSTLDDATDDWGIKVERVEIKDVKLPVQLQRAMAAEAEA
For B1, which Kd [1] is on record?
The Kd was 37 µM.

B2: stomatin^86–213 T182W (domain or fragment, mouse, UniProt P54116 86-213, looked up)
chain: B1 chain with T97W
Does B2 bind [2]?
Result: binds

B3: stomatin^86–213 LI91,92AA (domain or fragment, mouse, UniProt P54116 86-213, looked up)
chain: B1 chain with L6A, I7A
Does B3 bind [3]?
Result: binds

B4: stomatin^86–213 R97D, L109D, L145D (domain or fragment, mouse, UniProt P54116 86-213, looked up)
chain: B1 chain with R12D, L24D, L60D
Does B4 bind [2]?
Result: binds

B5: stomatin^86–213 L109D,L145D (domain or fragment, mouse, UniProt P54116 86-213, looked up)
chain: B1 chain with L24D, L60D
Does B5 bind [2]?
Result: binds
